Measurements from publication PMC4320627, “Transcription factor MrpC binds to promoter regions of hundreds of developmentally-regulated genes in Myxococcus xanthus”.

T1: FruA-His6 (Myxococcus xanthus) (UniProt Q1D7Q3)
T1 sequence: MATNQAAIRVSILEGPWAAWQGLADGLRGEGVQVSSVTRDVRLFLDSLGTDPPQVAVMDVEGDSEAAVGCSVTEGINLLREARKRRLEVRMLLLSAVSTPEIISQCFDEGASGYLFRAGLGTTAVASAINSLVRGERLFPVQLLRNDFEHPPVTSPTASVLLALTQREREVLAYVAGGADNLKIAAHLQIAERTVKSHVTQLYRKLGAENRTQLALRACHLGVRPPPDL

T2: His10-MrpC2 (Myxococcus xanthus, UniProt Q1D244 26-248)
T2 sequence: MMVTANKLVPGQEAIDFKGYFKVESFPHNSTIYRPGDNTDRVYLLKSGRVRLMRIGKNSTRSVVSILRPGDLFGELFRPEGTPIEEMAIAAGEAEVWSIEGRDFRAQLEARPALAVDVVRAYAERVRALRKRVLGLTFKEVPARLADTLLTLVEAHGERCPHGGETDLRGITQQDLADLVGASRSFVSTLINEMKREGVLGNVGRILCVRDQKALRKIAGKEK

B1: MXAN_0524 probe A (dsDNA)
DNA 1: CCGTCCCAACAACTGATACACAGTCAACGTTTCTCCATCC
DNA 2: GGATGGAGAAACGTTGACTGTGTATCAGTTGTTGGGACGG
B2: MXAN_0524 probe C (dsDNA)
DNA 1: CATCCAGCCCACCTGTCCTCCACTGAACACGTACTGGCAC
DNA 2: GTGCCAGTACGTGTTCAGTGGAGGACAGGTGGGCTGGATG
B3: MXAN_0524 probe B (dsDNA)
DNA 1: CACAGTCAACGTTTCTCCATCCAGCCCACCTGTCCTCCAC
DNA 2: GTGGAGGACAGGTGGGCTGGATGGAGAAACGTTGACTGTG

molecular target: T1, FruA-His6 (Myxococcus xanthus); assay: EMSA; details: 2 nM 32P-labeled DNA, 25 C, 15 min, buffer as in cited ref 127 (not given)

Molecule | binding
GGCGAACGGGACTTTCCTTCTCCAAGGTTCGTGCCAGCGGGAATTGAAATGCCGCCGGGACAACACCTCCTGAAATGCCGGGTACTTAGCGCTACAGGCCCGCACCAGAGCCCGTTCTGTGTCCAAAACCTGAAACAGAACGTTCAAACAGTCTGATCAATTTGAACGAAACGTTCAAACCGGGGGCATGAGTGTCGGAGCAG (double strand) [mrpC upstream PCR] | no binding
GTCTTCCTTGTTGATGAGCCCCGGAGGGGCCATCGCGGTGGGCATAGCGCTCGCAGCGGAGCCCTTCTTCTTCTCATCGGACATGAAATTCAGCCTTTTCTCTTCGACAACCAGTGAACATTTCCAGGTTTTCTGCGGCGGATGAACCAACGTAACAACCAAAACGGACATGGCAAACGCAGTGTGCGTTTTTCCGCCCCCCGTCACCTCTCCAGGGTTCCTCGGAAGTC (double strand) [bsgA PCR] | binds
CAAGGTGATGATGTGCGTCGAGGCTATCGGCCATGTGCGGGAGCGTCAATGTTCGGACCGGGCGGAATTCCGGCTGCCCGGGGAGCGGGCAAGCGCCGTCACACAGCCGACGTTTCCGTCACTGAGGGTACGTCGGGTACGTCACTGGCTCGACGGAGATGGGCGGCCAGGAGTGCGGCGTGCGCGGCGCGGGCGGGAGCGAATACAGCGGCTCG (double strand) [frzS PCR] | no binding
CTCGTTTACGAACTCGTCTGGTCCAAGTACCTCGGGAATGTCCTGGGGAACAGCGGCCAGGCGCATGCCGTGGTGCTCGCCACGTTCATGGGAGGGCAAGCGCTGGGCGCATTTGTCTTCGGGCGGACAGCCGACCGGGCAAAGAACCCCCTGGCCCTTTACGGCCTGCTGGAGCTGGGCGTGGGCCTGTACGCGCTGGTCTTC (double strand) [mrpA PCR] | binds more weakly
GTGGGCATCCACGAAGCGCGCCCCGGACTGGTGCGCCCCCTGCTGTCGTGCACGCGGGAGGAGGTGGTGGCCTTCCTGGCGGAGCAGGGTGTCGCCTATGTGACAGACCCGATGAACACCGACCCTGTCCACTTCCGGACGCGCGTTCGCCTTGGAGTGCTACCCGCCCTGTCGCGCGCCGCTGGCTTCGCGGTGGAGG (double strand) [MXAN_4360 PCR] | binds more weakly
CGAGCTCCTGTGAACCGAAGTCATGCTGCTGGTAGGAGCCCGCTGGGTCTGCCCAGACCTCGCCAATGAGGCGCTGGTCCATTAATTGCTCAACGCAACAACTTGCGAAGCAGTCTGTCGGCTACTTGACCGTGCTTGCCAGTGAATGAGAAGTGACGCCTGCGTGCTGACCGTAATGGGACAGGCGGGGACCATGTATATGAGGTGGAAGAAGC (double strand) [MXAN_5802 PCR] | no binding
GATTAGCACTACGCATGCCAACCCAGGTGCGCACTCCAAGCCCCCCAATTCTCAAGGCTTGGAACAATCCCCTCGGCGAGGATGGGTCCAGGGCTGACAAAATTCGGCAGTGACGCTGACGATAACTGTCGATCAGCCTACGCATCCGAAGCGCTCCCGGGCTCCAAGTCATCCGTCAGCCCATGCTTGGCCAACCGGTAGCGGAATGAACGGAACGAAAG (double strand) [pilA PCR] | no binding
GGATTTGCCTTTGCACCTCCAGAACCACCAGTGGGTGAAACAATGTCAACGGGAGTCCTTCGCCACGGCCTTGATTGTCCCTTAGCAAACACAGTGAACCGCACAGCGACAAGGCAGGAATTCGCCCACGCTGGACTCACGGCACGTCGGAAGCATCTCTTGGGAATCAAGAATTGAGTGAGGTCCATCGCCCTGCAATCGATGGCAAAGAG (double strand) [pkn8 PCR] | no binding
GTACCAACTCGCGCACGTCGGGTGCGGGCAGTCCGTAGCGCTGGCCGTTCAGGGTGAACAGCAGCACCTCCGTGGGTGCGGGGGTCATGTCCTGGGACATAAGACGTGGGCGTGGCCACTGTCGAACATTGATGTCGGCCCGCGGTCGCGGTGTCCACCAGTCCTCAGTGGAGGCAGGAGGAGGGGCCCATGGTTCGGGGGGAACACGACAGGTGCTCGCTGTGC (double strand) [cheW6a PCR] | binds
CCAGGGAACGTAGAAGTCTGGCAGTTCGAATGGCTGCTTGTTTTTCGCCGTACTCATGGACGCCCCTCGTTGAACTCAGGGGGGCGTTATAGTTAGGCGCTGAACACTTATCCAAGTGTTTCTTGCATAAAAGATTCTCTGGAGAAGTCGCGATTTGCCTGCTGGCGCACGGATTTAGCTCCATCCGTGCGCCGTATTGCTC (double strand) [MXAN_6247 PCR] | binds

molecular target: T2, His10-MrpC2; assay: EMSA; 1 uM protein; EMSA, 2 nM 32P-labeled DNA, 25 C, 15 min; buffer as in cited ref 127 (not given); details: protein: recombinant; tags: N-terminal His10; chain copies: 2; label: 32P; blunt

Molecule | binding result
B1 | binds
B2 | binds
B3 | no binding
